Like-named read-outs stand apart in the source and are kept apart here. Values belong to the binder of their own block, whether it stands above or below them.
Columns and labels:
[1] = biological target: T1, mouse LAIR-1-hFc (Sino Biological) (mouse, UniProt Q8BG84 22-144, limits assumed); assay: flow cytometry blocking: antibody pre-incubated with 2 µg/mL mouse LAIR-1-hFc, added to HEK-293T cells transfected with mouse MARCO, Alexa Fluor 647 anti-human Fc, MFI (right panel)
T1 construct: Bought; also called mouse LAIR-1-Fc; not shown: human Fc (hFc)
T1 sequence: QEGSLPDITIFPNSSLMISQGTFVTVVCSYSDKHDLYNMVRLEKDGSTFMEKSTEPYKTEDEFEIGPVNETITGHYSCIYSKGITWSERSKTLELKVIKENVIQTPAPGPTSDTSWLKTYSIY

[2] = biological target: T2, mouse LAIR-1-PILRβ chimeric receptor on GFP reporter cells (mouse); assay: cell-based or functional assay
[3] = biological target: T2, mouse LAIR-1-PILRβ chimeric receptor on …; assay: cell-based or functional assay; remark: listed apart in the source
[4] = biological target: T1, mouse LAIR-1-hFc (Sino Biological); assay: ELISA blocking: plate coated with 2 µg/mL mouse collagen type 1, antibody pre-incubated with 2 µg/mL mouse LAIR-1-hFc, HRP anti-human Fc, OD650 (left panel)
[5] = biological target: T3, cyno LAIR-1-CD3ζ chimeric receptor on NFAT-GFP reporter cells (cynomolgus monkey; human); assay: cell-based or functional assay
[6] = biological target: T4, human LAIR-1-CD3ζ chimeric receptor on NFAT-GFP reporter cells (human, UniProt P20963 31-164, limits assumed); assay: cell-based or functional assay
[7] = biological target: T4, human LAIR-1-CD3ζ chimeric receptor on …; assay: cell-based or functional assay; remark: listed apart in the source
[8] = biological target: T5, human LAIR-1b (alternative isoform of human LAIR-1) on transfected 293T cells (human, UniProt Q6GTX8 22-287); assay: flow cytometry on cells expressing human LAIR-1b, PE anti-human Fc secondary, MFI (panel Human LAIR1 (Truncated) Cells)
T5 chain: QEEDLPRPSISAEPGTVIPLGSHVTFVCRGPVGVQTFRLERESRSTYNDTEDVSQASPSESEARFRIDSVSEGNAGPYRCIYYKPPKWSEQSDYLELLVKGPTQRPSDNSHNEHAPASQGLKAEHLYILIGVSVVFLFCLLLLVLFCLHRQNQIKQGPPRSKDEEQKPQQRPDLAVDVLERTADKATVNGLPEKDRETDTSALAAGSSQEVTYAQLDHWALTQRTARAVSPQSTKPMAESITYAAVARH

[9] = biological target: T3, cyno LAIR-1-CD3ζ chimeric receptor on …; assay: flow cytometry on cyno LAIR-1 reporter cells, PE anti-human Fc secondary, MFI (panel Cynomolgus Monkey LAIR1 Cells)
[10] = biological target: T3, cyno LAIR-1-CD3ζ chimeric receptor on …; assay: cell-based or functional assay; remark: listed apart in the source
[11] = biological target: T4, human LAIR-1-CD3ζ chimeric receptor on …; assay: cell-based or functional assay; remark: listed apart in the source
cyno LAIR-1-ECD = biological target: T6, cyno LAIR-1-ECD (cynomolgus monkey); assay: SPR (Biacore) as in Example 2
T6 construct: Recombinant, expressed in mammalian cells; also called extracellular region of cyno LAIR-1
T6 chain: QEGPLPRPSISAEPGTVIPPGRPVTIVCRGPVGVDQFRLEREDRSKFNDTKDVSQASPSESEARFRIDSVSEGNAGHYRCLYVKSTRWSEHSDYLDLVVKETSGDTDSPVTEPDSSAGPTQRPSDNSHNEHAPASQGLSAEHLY

human LAIR-1-ECD = biological target: T7, human LAIR-1-ECD (human, UniProt Q6GTX8 22-165); assay: SPR (Biacore) as in Example 2
T7 construct: Recombinant, expressed in mammalian cells; also called extracellular region of human LAIR-1
T7 chain: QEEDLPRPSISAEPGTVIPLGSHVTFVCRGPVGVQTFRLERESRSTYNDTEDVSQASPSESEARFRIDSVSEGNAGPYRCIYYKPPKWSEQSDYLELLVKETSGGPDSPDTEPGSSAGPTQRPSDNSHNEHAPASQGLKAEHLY

[12] = biological target: T8, human LAIR-1, endogenous on human cells (human, UniProt Q6GTX8 22-287); assay: flow cytometry of human PBMCs (9 donors) with Alexa Fluor 488-labelled ch47H1
T8 construct: Native receptor of primary human cells and of the THP1 line; isoform on the cells not determined; also called LAIR-1 on PBMC subsets, THP1 cells, monocyte-derived dendritic cells, macrophages and T-cells
T8 chain: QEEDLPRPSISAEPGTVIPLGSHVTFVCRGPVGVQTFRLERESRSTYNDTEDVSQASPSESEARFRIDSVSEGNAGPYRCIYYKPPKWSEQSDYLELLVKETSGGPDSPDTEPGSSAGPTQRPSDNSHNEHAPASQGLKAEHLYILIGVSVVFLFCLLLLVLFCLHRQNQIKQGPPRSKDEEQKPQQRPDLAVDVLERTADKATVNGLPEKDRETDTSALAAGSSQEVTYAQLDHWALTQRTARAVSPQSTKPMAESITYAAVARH

[13] = biological target: T4, human LAIR-1-CD3ζ chimeric receptor on …; assay: cell-based or functional assay; remark: listed apart in the source
human LAIR-1-Fc = biological target: T9, human LAIR-1-Fc (human, UniProt Q6GTX8 22-165); assay: ELISA blocking: plate coated with 5 µg/mL human collagen type 1, antibody titrated, 1 µg/mL biotinylated human LAIR-1-Fc, streptavidin-HRP, OD650
T9 construct: also called biotinylated human LAIR-1-Fc; not shown: a Fc region
T9 chain: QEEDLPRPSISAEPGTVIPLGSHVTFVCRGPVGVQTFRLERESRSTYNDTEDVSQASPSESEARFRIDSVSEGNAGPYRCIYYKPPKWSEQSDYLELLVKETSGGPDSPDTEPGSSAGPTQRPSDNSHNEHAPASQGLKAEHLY

[14] = biological target: T3, cyno LAIR-1-CD3ζ chimeric receptor on …; assay: cell-based or functional assay; remark: listed apart in the source
[15] = biological target: T4, human LAIR-1-CD3ζ chimeric receptor on …; assay: cell-based or functional assay; remark: listed apart in the source
[16] = biological target: T4, human LAIR-1-CD3ζ chimeric receptor on …; assay: flow cytometry on human LAIR-1 reporter cells, PE anti-human Fc secondary, MFI (panel Human LAIR1 Cells)

IC50 (read off the curve) [1]: ~20 nM | IC50 (read off the curve): % GFP+ mouse LAIR-1 reporter cells on coated human MARCO-his [2]: ~0.1 nM | IC50 (read off the curve): % GFP+ mouse LAIR-1 reporter cells on coated mouse collagen type 1 [2]: ~0.04 nM | IC50 (read off the curve): % GFP+ mouse LAIR-1 reporter cells on coated mouse collagen type 4 [2]: ~0.02 nM | IC50 (read off the curve): % GFP+ mouse LAIR-1 reporter cells co-cultured with bEnd.3 cells [3]: ~0.02 nM | IC50 (read off the curve) [4]: ~80 nM
B1: anti-mouse LAIR-1 antibody 43H2 (antibody, V domains shown)
VH: EVQLVESGGGLVQPGRSLKVSCAASGFTFSNYGIHWIRQAPTKGLEWVASISPSGRSTYFRDSVKGRFTISRDNAKNTLYLQLDSLRSEDTATYYCATGINYSSFDYWGQGVMVTVSS
VL: DIVMTQSPTSMSISVGDRVTMNCKASQNVGSHVDWYQQKTGQSPKLLISTASNRYTGVPDRFTGSGSGTDFTFTINNMQTEDLAVYYCMQSNSYPPTFGGGTKLELK
notes: Raised in rats

IC50 (read off the curve): % GFP+ cyno LAIR-1 reporter cells on coated MARCO-his [5]: ~0.1 nM | IC50 (read off the curve): % GFP+ cyno LAIR-1 reporter cells on coated collagen 1 [5]: ~0.2 nM | IC50 (read off the curve): % GFP+ cyno LAIR-1 reporter cells on coated collagen 4 [5]: ~0.2 nM | IC50 (read off the curve): % GFP+ human LAIR-1 reporter cells on coated MARCO-his [6]: ~0.02 nM | IC50 (read off the curve): % GFP+ human LAIR-1 reporter cells on coated collagen 1 [6]: ~0.02 nM | IC50 (read off the curve): % GFP+ human LAIR-1 reporter cells on coated collagen 4 [6]: ~0.02 nM | IC50 (read off the curve): % GFP+ human LAIR-1 reporter cells on coated MARCO-his [7]: ~0.07 nM | IC50 (read off the curve): % GFP+ human LAIR-1 reporter cells on coated collagen 1 [7]: ~0.09 nM | IC50 (read off the curve): % GFP+ human LAIR-1 reporter cells on coated collagen 4 [7]: ~0.06 nM | EC50 (read off the curve) [8]: ~1 nM | EC50 (read off the curve) [9]: ~0.7 nM | IC50 (read off the curve): % GFP+ cyno LAIR-1 reporter cells co-cultured with bEnd.3 cells [10]: ~0.1 nM | IC50 (read off the curve): % GFP+ human LAIR-1 reporter cells co-cultured with bEnd.3 cells [11]: ~0.02 nM | Kd (cyno LAIR-1-ECD): 4.6 nM | koff (cyno LAIR-1-ECD): 0.001 s⁻¹ | kon (cyno LAIR-1-ECD): 220000 M⁻¹ s⁻¹ | Kd (human LAIR-1-ECD): 0.34 nM | koff (human LAIR-1-ECD): 0.00051 s⁻¹ | kon (human LAIR-1-ECD): 1.5e+06 M⁻¹ s⁻¹ | binding result [12]: binds | IC50 (read off the curve): % GFP+ human LAIR-1 reporter cells on coated C1 complex [13]: ~0.02 nM | IC50 (read off the curve): % GFP+ human LAIR-1 reporter cells on coated COLEC12 [13]: ~0.05 nM | IC50 (read off the curve): % GFP+ human LAIR-1 reporter cells on coated MARCO-his [13]: ~0.03 nM | IC50 (read off the curve): % GFP+ human LAIR-1 reporter cells on coated MBL [13]: ~0.06 nM | IC50 (read off the curve): % GFP+ human LAIR-1 reporter cells on coated SP-D [13]: ~0.03 nM | IC50 (read off the curve): % GFP+ human LAIR-1 reporter cells on coated collagen 1 [13]: ~0.02 nM | IC50 (read off the curve): % GFP+ human LAIR-1 reporter cells on coated collagen 4 [13]: ~0.02 nM | IC50 (read off the curve) (human LAIR-1-Fc): ~3 nM | IC50 (read off the curve): % GFP+ cyno LAIR-1 reporter cells on polymerized collagen matrix [14]: ~0.2 nM | IC50 (read off the curve): % GFP+ human LAIR-1 reporter cells on polymerized collagen matrix [15]: ~0.03 nM | EC50 (read off the curve) [16]: ~0.2 nM
B2: anti-LAIR-1 antibody ch47H1 (antibody, V domains shown)
VH: EVQLVETGGGLVQPKGSLKLSCAASGFTFNINAMNWVRQAPGKGLEWVARIRTKNNNYATFYADSVKDRFTISRDDSQSMLYLQMNNLKTDDTAMYYCVRDRAGFFAYWGQGTPVTVSA
VL: DIQMTQSPASQSASLGESVTITCLASQTIGTWLGWYRQKPGKSPQLLIYAATSLADGVPSRFSGSGSGTKFSFKISSLQAEDFVIYYCQQLYSTPLTFGSGTKLEIK
notes: The prefix 'ch' is not defined; detected with anti-human Fc secondary antibody
